{
  "source": "patent US20050239704",
  "about": "“Compositions and methods for affecting virulence determinants in bacteria” (published 2005)",
  "binders": {"B1": {"name": "sarA P2 protected region (nt 81-108) (dsDNA)", "DNA 1": "TAAATTAATGTTATTTTTTAATAATTTA", "DNA 2": "TAAATTATTAAAAAATAACATTAATTTA"}},
  "biological_target": "SarR (Staphylococcus aureus, UniProt Q2FEJ8 SEQ:1-115)",
  "sequence (Q2FEJ8 whole entry, the tested form may be a part)": "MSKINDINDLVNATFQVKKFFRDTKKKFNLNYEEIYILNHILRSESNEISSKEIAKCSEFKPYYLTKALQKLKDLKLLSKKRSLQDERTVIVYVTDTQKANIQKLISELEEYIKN",
  "assay": "footprint; protected region nt 81-108 within the 109-bp fragment",
  "details": "tags: untagged, pET11b expressed in E. coli BL21(DE3)pLysS; chain copies: 2 (inferred)",
  "data": [
    {"binder": "B1", "values": [
      {"measurement": "binding result", "result": "binds"}
    ]}
  ]
}
